Test results from patent US20260209325A1 (SCHOLAR ROCK, published 2026).

What was measured:
cyno pro-myostatin [1] = target: T1, cyno pro-myostatin (cynomolgus monkey, Biotinylated for capture in the SPR assay (site not stated). The native form is a disulfide-linked homodimer, partly furin-cleaved; one chain is given.); test: plate binding assay, OD 450 nm, antibody titrated 0.0003 to 100 nM, panel 'Cyno-Pro-GDF-8 Plate 2' (method not described in the text)
T1 construct: also called proGDF8 (cynomolgus); cynomolgus monkey pro-myostatin

human pro-myostatin [2] = target: T2, human pro-myostatin (human, UniProt O14793 24-375, biotinylated (in the SPR assay)); test: plate binding assay, OD 450 nm, antibody titrated 0.0003 to 100 nM, panel 'Hu-Pro-GDF-8 Plate 2' (method not described in the text)
T2 construct: Disulfide-linked homodimer; also called proGDF8 (human)

human pro-myostatin [3] = target: T2, human pro-myostatin; test: SPR Biacore 8K, biotin-antigen captured
cyno pro-myostatin [4] = target: T1, cyno pro-myostatin; test: SPR Biacore 8K, biotin-antigen captured
murine pro-myostatin [5] = target: T3, murine pro-myostatin (mouse, UniProt O08689 25-376, biotinylated (in the SPR assay)); test: SPR Biacore 8K, biotin-antigen captured
T3 construct: also called proGDF8 (mouse); mouse pro-myostatin

human pro-myostatin [6] = target: T2, human pro-myostatin; test: cell-based or functional assay
[7] = target: recombinant human latent myostatin (human, UniProt O14793 24-375, biotinylated (in the Octet pH assay only)); test: cell-based or functional assay
murine pro-myostatin [8] = target: T3, murine pro-myostatin; test: plate binding assay, OD 450 nm, antibody titrated 0.0003 to 100 nM, panel 'Mu-Pro-GDF-8 Plate 2' (method not described in the text)
human pro-myostatin [9] = target: T2, human pro-myostatin; test: plate binding assay, absorbance at 450 nm, antibody titrated 100 to about 0.002 nM, panel 'Human Pure Pro-GDF-8' (method not described in the text)
cyno pro-myostatin [10] = target: T1, cyno pro-myostatin; test: plate binding assay, absorbance at 450 nm, antibody titrated 100 to about 0.002 nM, panel 'Cyno Pure Pro-GDF-8' (method not described in the text)
murine pro-myostatin [11] = target: T3, murine pro-myostatin; test: plate binding assay, absorbance at 450 nm, antibody titrated 100 to about 0.002 nM, panel 'Murine Pure Pro-GDF-8' (method not described in the text)

B1: Ab121 (antibody, human IgG4 S228P, kappa, V domains shown)
VH: QVTLRESGPALVKPTQTLTLTCTVSGFSFSTSGMVVNWIRQPPGKALEWLAMIDWDADNIVYNSALKSRLTISKDTSKNQVVLTMTNMDPVDTATYYCAKDTGSGWFDAFDIWGQGTMVTVSS
VL: DIVMTQSPDSLAVSLGERATINCKSSQSVLYSSTNQNFLAWYQQKPGQPPKLLIYQASTLQNGVPDRFSGSGSGTDFTLTISSLQAEDVAVYYCQQYLTTPYTFGGGTKVEIKR
With B1 the “EC50 (read off the curve)” value (cyno pro-myostatin [1]) was ~200 pM, the “EC50 (read off the curve)” value (human pro-myostatin [2]) was ~200 pM and the Kd (human pro-myostatin [3]) was 101 pM. For the same binder, the koff (human pro-myostatin [3]) was 0.000318 s⁻¹, the kon (human pro-myostatin [3]) was 3.16e+06 M⁻¹ s⁻¹ and the Kd (cyno pro-myostatin [4]) was 106 pM. It also gave a koff (cyno pro-myostatin [4]) of 0.000365 s⁻¹, a kon (cyno pro-myostatin [4]) of 3.45e+06 M⁻¹ s⁻¹ and a Kd (murine pro-myostatin [5]) of 187 pM. The koff (murine pro-myostatin [5]) was 0.000608 s⁻¹, the kon (murine pro-myostatin [5]) was 3.24e+06 M⁻¹ s⁻¹ and the “IC50 (nM) Pro + Furin” value (human pro-myostatin [6]) was 0.143 nM. For the same binder, the “IC50 (nM) Latent + mTLL2” value [7] was 0.386 nM and the “EC50 (read off the curve)” value (murine pro-myostatin [8]) was ~200 pM.

B2: Ab104 (antibody, human IgG4 S228P, kappa, V domains shown)
VH: EVQLVESGGGLVQPGGSLRLSCAASGSAFSSYGMSWVRQAPGKGLELVASINSNGGSTYYPDSVKGRFTISRDNAKNSLYLQMNSLRAEDTAVYYCARDLLVKFLSWSHYYGMDVWGQGTTVTVSS
VL: DIVMTQSPLSLPVTPGEPASISCRSSQSLLHSSGHNFLHWYLQKPGQSPQLLIYEVSNRVSGVPDRFSGSGSGTDFTLKISRVEAEDVGVYYCMQQTQYPPTFGGGTKVEIKR
B2 was tested, and the “EC50 (read off the curve)” value (human pro-myostatin [9]) was ~500 pM, the “EC50 (read off the curve)” value (cyno pro-myostatin [10]) was ~700 pM and the Kd (human pro-myostatin [3]) was 100 pM. For the same binder, the koff (human pro-myostatin [3]) was 0.000381 s⁻¹, the kon (human pro-myostatin [3]) was 3.82e+06 M⁻¹ s⁻¹ and the Kd (cyno pro-myostatin [4]) was 76 pM. It also gave a koff (cyno pro-myostatin [4]) of 0.000322 s⁻¹, a kon (cyno pro-myostatin [4]) of 4.21e+06 M⁻¹ s⁻¹ and a Kd (murine pro-myostatin [5]) of 145 pM. For the same binder, the koff (murine pro-myostatin [5]) was 0.000518 s⁻¹, the kon (murine pro-myostatin [5]) was 3.58e+06 M⁻¹ s⁻¹ and the “IC50 (nM) Pro + Furin” value (human pro-myostatin [6]) was 0.363 nM. For the same binder, the “IC50 (nM) Latent + mTLL2” value [7] was 0.22 nM and the “EC50 (read off the curve)” value (murine pro-myostatin [11]) was ~600 pM.
